Laboratory results: article doi:10.1101/2020.10.05.326918 (bioRxiv, 2020)

B1: MED29 (natural protein, Mus musculus (endogenous in CH12 cells), UniProt Q9DB91 1-199, looked up)
chain: MAAPQPQAAAVSSASGVSGPGSAGGPGPQQQPQPTQLVGSAQSGLLQQQQQDFDPVQRYKMLIPQLKESLQTLMKVAAQNLIQNTNIDNGQKSSDAPLQRFDKCLEEFYALCDQLELCLRLAHECLSQSCDSAKHSPTLVPTATKPDAVQPDSLPYPQYLAVIKAQITCAKDIHTALLDCANKVTGKTTAPSTGPGGSL
B2: MED27 (natural protein, Mus musculus (endogenous in CH12 cells), UniProt Q9DB40 1-311, looked up)
chain: MADVLSVGVNLEAFSQAISAIQALRSSVSRVFDCLKDGMRNKETLEGREKAFIANFQDNLHSVNRDLNELERLSNLVGKPSENHPLHNSGLLSLDPVQDKTPLYSQLLQAYKWSNKLQYHAGLASGLLNQQSLKRSANQMGVSAKRRPKAQPTTLVLPPQYVDDVISRIDRMFPEMSIHLSRPNGTSAMLLVTLGKVLKVIVVMRSLFIDRTIVKGYNESVYTEDGKLDIWSKSSYQVFQKVTDHATTALLHYQLPQMPDVVVRSFMTWLRSYIKLFQAPCQRCGKFLQDGLPPTWRDFRTLEAFHDTCRQ
B3: MED17 (natural protein, Mus musculus (endogenous in CH12 cells), UniProt Q8VCD5 1-649, looked up)
chain: MSGVRAVRISIESACEKQVQEVGLDGTETYLQPLSMSQNLARLAQRIDFSQGSGSEEEEAAGPDGDAPDWGGAGADQDDEEGLVKFQPSLWPWDSVRNNLRSALTEMCVLYDVLSIVRDKKFMTLDPVSQDALPPKQSPQTLQLISKKKSLAGAAQILLKGAERLTKSVAENQENKLQRDFNSELLRLRQHWKLRKVGDKILGDLSYRSAGSLFPHHGTFEVIKNTDIDLDKKIPEDYCPLDVQIPSDLEGSAYIKVSIQKQAPDIGDLGTVNLFKRPLPKSKPGSPHWQTKLEAAQNVLLCKEIFAQLSREAVQIKSQIPHIVVKNQIISQPFPSLQLSISLCHSSDDKKSQKCAAEKPGQEDHLYVLEHNLHLLIREFHKQTLSSIVMPHPASAPFGHKRMRLSGPQAFDKNEINSIQSTEGLLEKIIKQAKHIFLRSRTAATIDSLASRIEDPQIQAHWSNINDVYESSVKVLITSQGYEQICKSIQLQLNIGVEQVRVVHRDGRVIMLSHQEQELQDFLLSQMSQHQVHAVQQLAKVMGWQVLSFSNHVGLGPIESIGNASAITVASPSGDYAISVRNGPESGSKIMVQFPRNQCKDLPKSDVLQDSKWSHLRGPFKEVQWNKMEGRNFVYKMELLMSALSPCLL
B4: MED28 (natural protein, Mus musculus (endogenous in CH12 cells), UniProt Q920D3 1-178, looked up)
chain: MAASLGGMFTGQPPGPPPPPPGLPGQASLLQAAPGAPRPSNSTLVDELESSFEACFASLVSQDYVNGTDQEEIRTGVDQCIQKFLDIARQTECFFLQKRLQLSVQKPDQVIKEDVSELRSELQRKDALVQKHLTKLRHWQQVLEDINVQHKKPADMPQGSLAFLEQASANIPAPLKQT
B5: MED30 (natural protein, Mus musculus (endogenous in CH12 cells), UniProt Q9CQI9 1-178, looked up)
chain: MSTPPLAPTGMASGPFGGPQAQQAAREVNTATLCRIGQETVQDIVYRTMEIFQLLRNMQLPNGVTYHTGTYQDRLTKLQDHLRQLSILFRKLRLVYDKCNENCGGMDPIPVEQLIPYVDEDGSKNDDRAGPPRFASEERREIVEVNKKLKQKNQQLKQIMDQLRNLIWDINAMLAMRN

Key:
Assay in all cases: cryo-EM structure
MED14 = MED14 (Mus musculus (endogenous in CH12 cells), UniProt A2ABV5 1-1459)
MED14, sequence (A2ABV5 whole entry): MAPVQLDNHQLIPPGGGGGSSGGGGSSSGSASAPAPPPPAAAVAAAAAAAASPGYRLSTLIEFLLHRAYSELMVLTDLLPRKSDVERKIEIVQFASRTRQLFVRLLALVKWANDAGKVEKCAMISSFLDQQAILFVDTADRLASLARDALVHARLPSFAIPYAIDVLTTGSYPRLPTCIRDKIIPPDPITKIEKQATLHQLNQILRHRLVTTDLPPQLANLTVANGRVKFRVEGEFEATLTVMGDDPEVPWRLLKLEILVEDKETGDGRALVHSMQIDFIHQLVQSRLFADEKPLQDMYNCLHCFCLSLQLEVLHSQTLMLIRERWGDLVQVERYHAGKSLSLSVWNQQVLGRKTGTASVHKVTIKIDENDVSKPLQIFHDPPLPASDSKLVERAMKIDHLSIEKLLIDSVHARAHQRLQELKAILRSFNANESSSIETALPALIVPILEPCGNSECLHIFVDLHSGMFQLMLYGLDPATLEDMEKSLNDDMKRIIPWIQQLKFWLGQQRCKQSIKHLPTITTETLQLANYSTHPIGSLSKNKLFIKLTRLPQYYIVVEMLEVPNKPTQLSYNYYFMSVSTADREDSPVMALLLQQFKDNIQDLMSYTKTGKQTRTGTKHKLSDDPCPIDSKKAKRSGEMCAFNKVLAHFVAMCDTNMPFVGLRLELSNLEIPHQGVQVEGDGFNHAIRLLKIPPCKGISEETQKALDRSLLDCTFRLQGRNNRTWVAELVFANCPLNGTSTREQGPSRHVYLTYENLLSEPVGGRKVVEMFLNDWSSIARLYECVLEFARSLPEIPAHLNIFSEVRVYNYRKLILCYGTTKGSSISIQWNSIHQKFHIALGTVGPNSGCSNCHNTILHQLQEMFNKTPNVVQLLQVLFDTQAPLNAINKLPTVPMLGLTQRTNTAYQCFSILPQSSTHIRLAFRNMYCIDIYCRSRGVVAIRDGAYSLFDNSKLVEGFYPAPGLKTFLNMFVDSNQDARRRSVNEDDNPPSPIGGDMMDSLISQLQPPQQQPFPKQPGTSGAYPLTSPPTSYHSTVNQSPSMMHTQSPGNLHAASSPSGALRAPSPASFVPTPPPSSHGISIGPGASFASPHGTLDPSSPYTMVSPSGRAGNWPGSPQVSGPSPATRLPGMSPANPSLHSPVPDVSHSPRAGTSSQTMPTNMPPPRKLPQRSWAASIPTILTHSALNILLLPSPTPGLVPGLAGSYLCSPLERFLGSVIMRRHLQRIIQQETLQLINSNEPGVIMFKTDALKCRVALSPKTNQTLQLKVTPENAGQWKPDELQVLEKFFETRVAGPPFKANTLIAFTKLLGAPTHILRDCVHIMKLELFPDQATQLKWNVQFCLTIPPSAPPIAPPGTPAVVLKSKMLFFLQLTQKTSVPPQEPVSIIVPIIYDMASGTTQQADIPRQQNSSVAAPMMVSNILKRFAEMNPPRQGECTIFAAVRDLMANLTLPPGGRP

MED15 = target: T1, MED15 (Mus musculus (endogenous in CH12 cells), UniProt Q924H2 1-789)
T1 sequence (looked up): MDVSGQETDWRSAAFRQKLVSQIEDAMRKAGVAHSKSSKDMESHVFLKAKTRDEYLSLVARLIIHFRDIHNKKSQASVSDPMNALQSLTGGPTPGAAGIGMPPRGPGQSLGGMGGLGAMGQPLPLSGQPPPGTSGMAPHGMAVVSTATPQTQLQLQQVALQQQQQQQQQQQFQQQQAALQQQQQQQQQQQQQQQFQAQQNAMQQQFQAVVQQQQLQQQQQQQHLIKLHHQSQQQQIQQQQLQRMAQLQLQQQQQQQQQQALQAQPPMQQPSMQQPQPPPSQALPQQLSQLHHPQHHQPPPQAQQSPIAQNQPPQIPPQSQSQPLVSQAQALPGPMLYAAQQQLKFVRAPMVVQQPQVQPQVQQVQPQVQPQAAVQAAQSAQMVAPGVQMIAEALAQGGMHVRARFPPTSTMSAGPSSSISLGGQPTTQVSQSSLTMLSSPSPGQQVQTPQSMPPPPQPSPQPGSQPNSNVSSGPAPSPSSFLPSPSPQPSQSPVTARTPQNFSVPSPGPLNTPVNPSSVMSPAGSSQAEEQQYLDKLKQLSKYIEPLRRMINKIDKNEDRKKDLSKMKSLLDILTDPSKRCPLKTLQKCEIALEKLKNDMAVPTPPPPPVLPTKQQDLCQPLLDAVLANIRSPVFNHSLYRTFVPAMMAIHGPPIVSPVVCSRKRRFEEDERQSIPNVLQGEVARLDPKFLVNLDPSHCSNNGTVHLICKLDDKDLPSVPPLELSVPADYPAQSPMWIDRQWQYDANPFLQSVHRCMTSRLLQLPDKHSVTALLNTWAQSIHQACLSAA

MED16 = target: T2, MED16 (Mus musculus (endogenous in CH12 cells), UniProt Q6PGF3 1-828)
T2 sequence (looked up): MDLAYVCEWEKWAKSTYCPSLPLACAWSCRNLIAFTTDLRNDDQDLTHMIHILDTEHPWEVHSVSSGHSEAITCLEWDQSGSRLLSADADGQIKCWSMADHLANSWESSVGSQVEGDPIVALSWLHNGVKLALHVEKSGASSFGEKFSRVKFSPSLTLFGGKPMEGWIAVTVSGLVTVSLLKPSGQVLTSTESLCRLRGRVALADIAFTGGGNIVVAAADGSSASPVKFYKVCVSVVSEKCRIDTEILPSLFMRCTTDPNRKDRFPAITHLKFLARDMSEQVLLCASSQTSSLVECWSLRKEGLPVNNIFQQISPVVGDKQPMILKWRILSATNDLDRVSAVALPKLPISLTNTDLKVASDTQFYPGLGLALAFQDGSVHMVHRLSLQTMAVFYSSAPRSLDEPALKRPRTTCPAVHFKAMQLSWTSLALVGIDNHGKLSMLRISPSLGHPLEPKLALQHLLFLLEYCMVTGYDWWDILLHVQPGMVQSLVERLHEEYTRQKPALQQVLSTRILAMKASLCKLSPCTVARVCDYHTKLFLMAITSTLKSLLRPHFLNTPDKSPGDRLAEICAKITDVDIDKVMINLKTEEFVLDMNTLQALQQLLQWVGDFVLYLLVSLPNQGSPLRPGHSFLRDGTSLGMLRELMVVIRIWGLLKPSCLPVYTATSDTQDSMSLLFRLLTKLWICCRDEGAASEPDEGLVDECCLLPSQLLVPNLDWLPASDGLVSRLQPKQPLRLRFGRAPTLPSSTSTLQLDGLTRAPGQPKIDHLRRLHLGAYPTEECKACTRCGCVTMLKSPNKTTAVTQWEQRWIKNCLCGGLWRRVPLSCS

MED27 = target: B2
MED17 = target: B3
MED22 = target: T3, MED22 (Mus musculus (endogenous in CH12 cells), UniProt Q62276 1-200)
T3 sequence (looked up): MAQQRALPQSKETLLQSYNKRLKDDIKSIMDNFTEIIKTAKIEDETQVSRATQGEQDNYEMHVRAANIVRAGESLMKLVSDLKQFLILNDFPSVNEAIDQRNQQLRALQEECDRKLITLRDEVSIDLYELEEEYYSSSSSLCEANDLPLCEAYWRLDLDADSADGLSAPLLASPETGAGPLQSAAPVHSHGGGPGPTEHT

MED29 = target: B1
MED30 = target: B5

Measured: binding result

B1
binds: MED14 | MED15 | MED16 | MED27

B2
binds: MED17 | MED14 | MED15 | MED16

B3
binds: MED14 | MED15

B4
binds: MED22 | MED29 | MED30 | MED27

B5
binds: MED22 | MED29 | MED27
